Data published in the supplement of paper PMC6755084.

B1: F1*; the commonest letter at each place (parent)
chain: GAGACCGCAACTGAAAAGTTGTTATCACTTGTCGTAAGACACTTTGGATGGGTTGAAGTTCTGCACGTAGAAGCAAAAGGC
B2: minF1; a variant is named by its letters at N, in order (parent)
chain: GAGACCGCAACTGAAAAGTTGTTNNNNAANNNNGGNTNNATTTCTGCACGTAGAAGCAAAAGGC

Variants of: B1
Assay: fraction ligated after 30 min (ligated reads / total reads); higher = more ligase activity
Conditions: with F1*sub RNA substrate (template-directed ligation), 42 °C
Outline: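 Oligo-pool templates of ligase ribozyme variants were PCR-amplified, T7-transcribed and gel-purified. Ligated and unligated bands were gel-separated, reverse transcribed with barcoded primers, and MiSeq-sequenced; core bases were filtered at quality ≥20. Fraction ligated per variant was ligated reads over total reads.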
A56G A57C was tested, and the fraction ligated was 0.748.
In the case of A56G A57G, the fraction ligated is reported as 0.807.
Variant A56G A57T has a fraction ligated of 0.383.
A56T showed a fraction ligated of 0.803.
For A56T A57C, the fraction ligated was 0.0772.
A56T A57G showed a fraction ligated of 0.217.
With A56T A57T the fraction ligated was 0.454.
For A57C, the fraction ligated was 0.814.
Variant A57G has a fraction ligated of 0.822.
With A57T the fraction ligated was 0.844.
In the case of G58A, the fraction ligated is reported as 0.851.
With G58C the fraction ligated was 0.767.
Variant G58T has a fraction ligated of 0.834.
For unchanged, the fraction ligated was 0.826.

Variants of: B2
Assay: fraction ligated after 30 min (ligated reads / total reads); higher = more ligase activity
Conditions: with F1*subA RNA substrate (template-directed ligation), 42 °C
Method: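 Chip-synthesised pool of minF1 ligase ribozyme variants (single and double substitutions, single to quadruple deletions, bulge and P2 designed variants) was transcribed with T7 and reacted as a pool with excess substrate F1*subA for 30 min at 42 C in 50 mM EPPS pH 8.5, 25 mM MgCl2. Ligated and unligated RNAs were separated by PAGE, barcoded by RT and deep sequenced; fraction ligated = ligated reads / total reads, relative activity = FL / FL of wild-type minF1 (0.76); sequencing FL correlated with PAGE (R2 = 0.98). Sequences are the DNA template of the ribozyme.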
Work on GAAAGATGTGA A28T A29G yielded a fraction ligated of 0.00247.
With AAAAGATGTGA A28T A29G the fraction ligated was 0.00466.
For CAAAGATGTGA A28T A29G, the fraction ligated was 0.00352.
With TAAAGATGTGA A28T A29G the fraction ligated was 0.00323.
CAAAGATGTGA A29G gave a fraction ligated of 0.00439.
TAAAGATGTGA A29G gave a fraction ligated of 0.00158.
For AAAAGATGTGA A29G, the fraction ligated was 0.00274.
CAAAGATGTGA A29T gave a fraction ligated of 0.00371.
With TAAAGATGTGA A29T the fraction ligated was 0.00224.
AAAAGATGTGA A29T was tested, and the fraction ligated was 0.00419.
In the case of GAAAGATGTGA T23A A28T A29G, the fraction ligated is reported as 0.00194.
AAAAGATGTGA T23A A28T A29G showed a fraction ligated of 0.00631.
Work on CAAAGATGTGA T23A A28T A29G yielded a fraction ligated of 0.0035.
With TAAAGATGTGA T23A A28T A29G the fraction ligated was 0.00461.
Work on CAAAGATGTGA T23A A29G yielded a fraction ligated of 0.00234.
Work on TAAAGATGTGA T23A A29G yielded a fraction ligated of 0.00271.
CAAAGATGTGA T23A A29T gave a fraction ligated of 0.00168.
Work on TAAAGATGTGA T23A A29T yielded a fraction ligated of 0.00358.
GAAAGATGTGA T23C A28T A29G gave a fraction ligated of 0.00212.
For AAAAGATGTGA T23C A28T A29G, the fraction ligated was 0.00238.
CAAAGGAGTGA A29T was tested, and the fraction ligated was 0.00216.
TAAAGGAGTGA A29T showed a fraction ligated of 0.00185.
In the case of AAAAGGAGTGA A29T, the fraction ligated is reported as 0.00356.
Work on CAAAGGAGTGA T23A A29T yielded a fraction ligated of 0.00224.
TAAAGGAGTGA T23A A29T was tested, and the fraction ligated was 0.00645.
Work on CAAAGGATGTA A29T yielded a fraction ligated of 0.00185.
TAAAGGATGTA A29T was tested, and the fraction ligated was 0.00265.
With AAAAGGATGTA A29T the fraction ligated was 0.00276.
CAAAGGATGTA T23A A29T gave a fraction ligated of 0.000678.
TAAAGGATGTA T23A A29T gave a fraction ligated of 0.000932.
For CAAAGGATGTG A29T, the fraction ligated was 0.0079.
For TAAAGGATGTG A29T, the fraction ligated was 0.00445.
For AAAAGGATGTG A29T, the fraction ligated was 0.00334.
For CAAAGGATGTG T23A A29T, the fraction ligated was 0.00761.
TAAAGGATGTG T23A A29T was tested, and the fraction ligated was 0.00674.
CAAAGGATTGA A29T gave a fraction ligated of 0.0034.
With TAAAGGATTGA A29T the fraction ligated was 0.00151.
AAAAGGATTGA A29T gave a fraction ligated of 0.00197.
CAAAGGATTGA T23A A29T gave a fraction ligated of 0.00487.
Work on TAAAGGATTGA T23A A29T yielded a fraction ligated of 0.00317.
Work on CAAAGGTGTGA A29T yielded a fraction ligated of 0.00133.
With TAAAGGTGTGA A29T the fraction ligated was 0.0019.
Work on AAAAGGTGTGA A29T yielded a fraction ligated of 0.00306.
Variant CAAAGGTGTGA T23A A29T has a fraction ligated of 0.00303.
TAAAGGTGTGA T23A A29T showed a fraction ligated of 0.00275.
CAGAGATGTGA was tested, and the fraction ligated was 0.00372.
With TAGAGATGTGA the fraction ligated was 0.00183.
AAGAGATGTGA showed a fraction ligated of 0.00157.
Work on CAGAGATGTGA A28T A29G yielded a fraction ligated of 0.00451.
TAGAGATGTGA A28T A29G gave a fraction ligated of 0.00491.
AAGAGATGTGA A28T A29G gave a fraction ligated of 0.00397.
Variant CAGAGATGTGA A29G has a fraction ligated of 0.00315.
In the case of TAGAGATGTGA A29G, the fraction ligated is reported as 0.00391.
Work on AAGAGATGTGA A29G yielded a fraction ligated of 0.00367.
For CAGAGATGTGA A29T, the fraction ligated was 0.00205.
Variant TAGAGATGTGA A29T has a fraction ligated of 0.00374.
In the case of AAGAGATGTGA A29T, the fraction ligated is reported as 0.00363.
For CAGAGATGTGA T23A, the fraction ligated was 0.00241.
TAGAGATGTGA T23A was tested, and the fraction ligated was 0.00319.
Work on CAGAGATGTGA T23A A28T A29G yielded a fraction ligated of 0.00252.
TAGAGATGTGA T23A A28T A29G showed a fraction ligated of 0.00684.
In the case of CAGAGATGTGA T23A A29G, the fraction ligated is reported as 0.00348.
Work on TAGAGATGTGA T23A A29G yielded a fraction ligated of 0.00131.
Work on CAGAGATGTGA T23A A29T yielded a fraction ligated of 0.00283.
For TAGAGATGTGA T23A A29T, the fraction ligated was 0.00334.
For CAGAGGAGTGA, the fraction ligated was 0.0058.
With TAGAGGAGTGA the fraction ligated was 0.00669.
Variant AAGAGGAGTGA has a fraction ligated of 0.00337.
In the case of CAGAGGAGTGA A29T, the fraction ligated is reported as 0.
Variant TAGAGGAGTGA A29T has a fraction ligated of 0.00156.
With AAGAGGAGTGA A29T the fraction ligated was 0.00209.
Work on CAGAGGAGTGA T23A yielded a fraction ligated of 0.00148.
In the case of TAGAGGAGTGA T23A, the fraction ligated is reported as 0.0026.
In the case of CAGAGGAGTGA T23A A29T, the fraction ligated is reported as 0.000641.
Variant TAGAGGAGTGA T23A A29T has a fraction ligated of 0.00307.
CAGAGGATGTA was tested, and the fraction ligated was 0.000794.
For TAGAGGATGTA, the fraction ligated was 0.000988.
With AAGAGGATGTA the fraction ligated was 0.000999.
Work on CAGAGGATGTA A29T yielded a fraction ligated of 0.00385.
TAGAGGATGTA A29T was tested, and the fraction ligated was 0.00262.
AAGAGGATGTA A29T showed a fraction ligated of 0.00173.
Variant CAGAGGATGTA T23A has a fraction ligated of 0.00339.
TAGAGGATGTA T23A gave a fraction ligated of 0.00339.
CAGAGGATGTA T23A A29T was tested, and the fraction ligated was 0.00576.
Work on TAGAGGATGTA T23A A29T yielded a fraction ligated of 0.00136.
For CAGAGGATGTG, the fraction ligated was 0.00526.
Variant TAGAGGATGTG has a fraction ligated of 0.00216.
AAGAGGATGTG gave a fraction ligated of 0.00366.
CAGAGGATGTG A29T showed a fraction ligated of 0.0108.
TAGAGGATGTG A29T was tested, and the fraction ligated was 0.0045.
AAGAGGATGTG A29T showed a fraction ligated of 0.00669.
Work on CAGAGGATGTG T23A yielded a fraction ligated of 0.00549.
TAGAGGATGTG T23A gave a fraction ligated of 0.00675.
With CAGAGGATGTG T23A A29T the fraction ligated was 0.0132.
TAGAGGATGTG T23A A29T gave a fraction ligated of 0.00945.
For CAGAGGATTGA, the fraction ligated was 0.00276.
Variant TAGAGGATTGA has a fraction ligated of 0.00125.
With AAGAGGATTGA the fraction ligated was 0.00146.
CAGAGGATTGA A29T showed a fraction ligated of 0.0052.
TAGAGGATTGA A29T showed a fraction ligated of 0.00809.
For AAGAGGATTGA A29T, the fraction ligated was 0.007.
CAGAGGATTGA T23A gave a fraction ligated of 0.00223.
Variant TAGAGGATTGA T23A has a fraction ligated of 0.00191.
CAGAGGATTGA T23A A29T gave a fraction ligated of 0.00274.
In the case of TAGAGGATTGA T23A A29T, the fraction ligated is reported as 0.00233.
Work on CAGAGGTGTGA yielded a fraction ligated of 0.00486.
In the case of TAGAGGTGTGA, the fraction ligated is reported as 0.00375.
Work on AAGAGGTGTGA yielded a fraction ligated of 0.00286.
For CAGAGGTGTGA A29T, the fraction ligated was 0.00368.
TAGAGGTGTGA A29T gave a fraction ligated of 0.00319.
In the case of AAGAGGTGTGA A29T, the fraction ligated is reported as 0.00145.
In the case of CAGAGGTGTGA T23A, the fraction ligated is reported as 0.00265.
Variant TAGAGGTGTGA T23A has a fraction ligated of 0.00196.
In the case of CAGAGGTGTGA T23A A29T, the fraction ligated is reported as 0.00102.
TAGAGGTGTGA T23A A29T gave a fraction ligated of 0.00331.
With CAGATATGTGA the fraction ligated was 0.00323.
For TAGATATGTGA, the fraction ligated was 0.00128.
AAGATATGTGA gave a fraction ligated of 0.00183.
CAGATATGTGA T23A gave a fraction ligated of 0.00265.
In the case of TAGATATGTGA T23A, the fraction ligated is reported as 0.00255.
In the case of CAGATGAGTGA, the fraction ligated is reported as 0.00146.
TAGATGAGTGA showed a fraction ligated of 0.00265.
Work on AAGATGAGTGA yielded a fraction ligated of 0.00469.
In the case of CAGATGAGTGA T23A, the fraction ligated is reported as 0.00277.
TAGATGAGTGA T23A showed a fraction ligated of 0.00274.
With CAGATGATGTA the fraction ligated was 0.00303.
Variant TAGATGATGTA has a fraction ligated of 0.00158.
AAGATGATGTA showed a fraction ligated of 0.00102.
CAGATGATGTA T23A was tested, and the fraction ligated was 0.00233.
Work on TAGATGATGTA T23A yielded a fraction ligated of 0.00397.
With CAGATGATGTG the fraction ligated was 0.00641.
In the case of TAGATGATGTG, the fraction ligated is reported as 0.0051.
AAGATGATGTG showed a fraction ligated of 0.00397.
With CAGATGATGTG T23A the fraction ligated was 0.00584.
Work on TAGATGATGTG T23A yielded a fraction ligated of 0.00386.
Variant CAGATGATTGA has a fraction ligated of 0.0023.
TAGATGATTGA was tested, and the fraction ligated was 0.00145.
AAGATGATTGA showed a fraction ligated of 0.0028.
For CAGATGATTGA T23A, the fraction ligated was 0.00168.
TAGATGATTGA T23A was tested, and the fraction ligated was 0.00257.
Work on CAGATGGAGTA yielded a fraction ligated of 0.00249.
TAGATGGAGTA gave a fraction ligated of 0.00154.
With AAGATGGAGTA the fraction ligated was 0.00181.
For CAGATGGAGTA G34T, the fraction ligated was 0.00644.
Variant TAGATGGAGTA G34T has a fraction ligated of 0.00584.
AAGATGGAGTA G34T gave a fraction ligated of 0.00267.
CAGATGGAGTA T23A showed a fraction ligated of 0.00106.
TAGATGGAGTA T23A gave a fraction ligated of 0.000612.
CAGATGGAGTA T23A G34T was tested, and the fraction ligated was 0.00843.
Work on TAGATGGAGTA T23A G34T yielded a fraction ligated of 0.0029.
In the case of CAGATGGAGTG, the fraction ligated is reported as 0.00678.
TAGATGGAGTG gave a fraction ligated of 0.00279.
AAGATGGAGTG was tested, and the fraction ligated was 0.00495.
